From US20260263521A1, “ANTI-CD200R1 ANTIBODY AND USE THEREOF” (AIMED BIO INC., priority 2023, published 2026)

Test system: contact dermatitis animal model
Experiment: Contact dermatitis animal model (oxazolone)
Format: in vivo, C57BL/6 mice
Conditions: 20 mg/kg intravenously
Experimental: An in vivo contact dermatitis animal model was established to evaluate the anti-inflammatory efficacy of the anti-CD200R1 antibody. Ten-week-old female C57BL/6 mice were used for the contact dermatitis model. The animals were anesthetized and the abdominal hair thereof was removed. The following day, the shaved abdominal area was sensitized with 100 μL of 3% oxazolone in ethanol. Seven days after sensitization, P001009v1 was administered intravenously at a dose of 20 mg/kg. Four hours later, the thickness of both ears was measured. Then, both ears were sensitized with 2% oxazolone in 10 μL of ethanol. The thickness of both ears was measured again at 24 and 48 hours, and changes in ear edema thickness were recorded. Statistical analysis was performed using one-way ANOVA.

B1: P001009v1: P001009 variant, LC S52 and LC S94 substituted with K and R; VH SEQ ID NO: 79 (antibody, V domains shown)
VH: EVQLLESGGGLVQPGGSLRLSCAASGFTFSSYDMSWVRQAPGKGLEWVSWISHGGGSIYYADSVKGRFTISRDNSKNTLYLQMNSLRAEDTAVYYCARDAPAYSAPLFDYWGQGTLVTVSS
VL: QSVLTQPPSASGTPGQRVTISCSGSSSNIGNNAVNWYQQLPGTAPKLLIYYDKNRPSGVPDRFSGSKSGTSASLAISGLRSEDEADYYCAAWDDRLSGYVFGGGTKLTVL
B1 was tested, and the “anti-inflammatory efficacy after 48 hours” value (48 hours) was “maintained” and the “anti-inflammatory response (ear edema thickness)” value (compared to control group) was “significant anti-inflammatory response”.
